The values below come from article PMC12187637.

For experiment [1], the target named is GFP-tagged ADP-ribosylation-deficient NuMA, NuMA^PARmut construct (UniProt Q14980). Put plainly: co-IP; GFP-trap magnetic beads on whole-cell extracts (NP-40 lysis buffer with BaseMuncher endonuclease and ADP-HPD) of cells transfected with GFP-NuMA and co-transfected with myc-TDP1, untreated or treated with 10 uM H2O2 for 10 min on ice in the dark; 2 h at 4°C; immunoblot; three biological replicates.

Experiment [2] has the same target. Description: co-IP; GFP-trap magnetic beads on the chromatin fraction of cells co-transfected with myc-TDP1 and treated with 10 uM H2O2 for 10 min on ice in the dark; immunoblot; three biological replicates. For orientation: In western blotting, separated proteins are transferred to a membrane and probed.

UniProt Q14980, sequence (Q14980 other isoform, or with tags, fused parts or gaps, change not shown): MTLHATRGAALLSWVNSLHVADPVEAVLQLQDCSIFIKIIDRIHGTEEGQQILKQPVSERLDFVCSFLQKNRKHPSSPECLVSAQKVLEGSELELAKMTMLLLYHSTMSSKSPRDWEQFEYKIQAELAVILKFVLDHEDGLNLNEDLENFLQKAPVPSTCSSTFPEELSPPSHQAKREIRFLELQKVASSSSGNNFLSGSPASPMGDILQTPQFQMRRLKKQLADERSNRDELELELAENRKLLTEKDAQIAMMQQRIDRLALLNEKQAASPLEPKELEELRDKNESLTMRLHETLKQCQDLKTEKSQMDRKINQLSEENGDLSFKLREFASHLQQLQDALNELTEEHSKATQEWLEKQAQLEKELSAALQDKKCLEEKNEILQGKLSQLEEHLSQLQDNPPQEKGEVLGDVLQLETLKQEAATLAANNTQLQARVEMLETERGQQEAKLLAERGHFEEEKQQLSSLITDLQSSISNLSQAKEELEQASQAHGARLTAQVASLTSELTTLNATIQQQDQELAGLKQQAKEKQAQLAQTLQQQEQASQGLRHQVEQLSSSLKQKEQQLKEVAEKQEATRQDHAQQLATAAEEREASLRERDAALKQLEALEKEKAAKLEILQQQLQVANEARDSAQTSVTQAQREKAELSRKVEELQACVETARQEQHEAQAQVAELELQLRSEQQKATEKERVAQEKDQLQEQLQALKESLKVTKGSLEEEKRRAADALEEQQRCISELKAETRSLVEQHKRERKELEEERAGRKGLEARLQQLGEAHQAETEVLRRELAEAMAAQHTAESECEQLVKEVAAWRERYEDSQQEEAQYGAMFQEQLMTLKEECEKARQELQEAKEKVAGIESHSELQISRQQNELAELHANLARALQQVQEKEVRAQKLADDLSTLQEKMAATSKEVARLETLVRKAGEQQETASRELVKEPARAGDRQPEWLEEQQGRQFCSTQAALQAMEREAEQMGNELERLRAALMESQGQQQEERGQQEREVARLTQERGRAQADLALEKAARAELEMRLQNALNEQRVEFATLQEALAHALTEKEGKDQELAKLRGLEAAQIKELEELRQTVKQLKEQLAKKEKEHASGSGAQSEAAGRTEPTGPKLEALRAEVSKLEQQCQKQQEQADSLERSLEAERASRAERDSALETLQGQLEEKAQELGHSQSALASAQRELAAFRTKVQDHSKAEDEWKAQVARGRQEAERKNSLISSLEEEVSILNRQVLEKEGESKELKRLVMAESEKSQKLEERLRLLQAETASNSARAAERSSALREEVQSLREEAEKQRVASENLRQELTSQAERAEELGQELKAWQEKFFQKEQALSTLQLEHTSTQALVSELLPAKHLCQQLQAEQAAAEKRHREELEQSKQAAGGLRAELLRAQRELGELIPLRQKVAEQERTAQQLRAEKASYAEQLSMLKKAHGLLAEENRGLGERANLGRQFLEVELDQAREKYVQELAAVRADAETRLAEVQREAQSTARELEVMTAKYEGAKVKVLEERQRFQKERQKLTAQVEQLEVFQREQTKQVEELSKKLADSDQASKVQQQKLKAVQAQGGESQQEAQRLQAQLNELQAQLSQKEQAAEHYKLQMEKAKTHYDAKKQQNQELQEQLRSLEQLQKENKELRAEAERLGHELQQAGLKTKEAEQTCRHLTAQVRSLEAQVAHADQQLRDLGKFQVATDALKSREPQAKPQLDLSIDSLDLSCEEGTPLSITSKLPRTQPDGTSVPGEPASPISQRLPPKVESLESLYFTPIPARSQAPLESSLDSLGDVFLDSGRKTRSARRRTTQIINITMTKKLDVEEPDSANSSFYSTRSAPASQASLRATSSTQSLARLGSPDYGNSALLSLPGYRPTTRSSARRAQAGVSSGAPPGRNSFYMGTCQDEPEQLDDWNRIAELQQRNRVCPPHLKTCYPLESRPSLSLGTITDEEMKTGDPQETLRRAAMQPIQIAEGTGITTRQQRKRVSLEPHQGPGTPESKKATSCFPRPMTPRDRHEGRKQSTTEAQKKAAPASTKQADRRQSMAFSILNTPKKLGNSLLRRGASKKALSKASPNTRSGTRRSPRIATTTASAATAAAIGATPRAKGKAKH

In experiment [1], “myc-TDP1 (tyrosyl DNA phosphodiesterase 1) (from UniProt Q9NUW8 1-608) (enzyme)” displayed a percent decrease in interaction relative to NuMA^WT (H2O2-treated cells) of 38 to 45% and a percent decrease in interaction relative to NuMA^WT (untreated cells) of 38 to 45%. In experiment [2], this substance came in with a percent lower interaction than with NuMA^WT (chromatin fraction, H2O2-treated cells) of 50%.
